For orientation: Kd means the concentration at which binding is half-saturated.

For 4 molecules, Kd and n H results are on record in paper PMC3724859 (2013).

Positions count from the first letter of the chain named. No end group written: not given here.

Data set [1] has as its target EINsite peptides (Streptomyces coelicolor) (UniProt Q9KZP1). Particulars: cited from earlier work.
Data set [2] addresses EINsc H186D EIN (Streptomyces coelicolor) (UniProt Q9KZP1). The settings on record: cited from earlier work.
The target in data set [3] is EINosite peptide (HPr-contacting region of EIN^sc) (UniProt Q9KZP1). Kind of data set: ITC (Auto-ITC200) in two buffers of different ionisation enthalpy. Particulars: pH 7.0; 25 C; no added salt stated; 10 mM Mes (pH 7.0) and 10 mM Mops (pH 7.0); delta H ion 3.55 and 5.05 kcal/mol.
In data set [4] the target is N-terminal domain of enzyme I, phosphomimetic mutant EINH186D H186D (UniProt Q9KZP1). The description is as above. Particulars: pH 7.0; 25 C; no added salt stated; 10 mM Mes (pH 7.0) and 10 mM Mops (pH 7.0); delta H ion 3.55 and 5.05 kcal/mol.
Data set [5] addresses N-terminal domain of enzyme I, wild type (EIN^sc) (UniProt Q9KZP1). The data set is described as above. Particulars: pH 7.0; 25 C; no added salt stated; 10 mM Mes (pH 7.0) and 10 mM Mops (pH 7.0); delta H ion 3.55 and 5.05 kcal/mol.
Data set [6] addresses EINbsite peptide (active-site region of EIN^sc) (UniProt Q9KZP1). Described as above. The settings on record: pH 7.0; 25 C; no added salt stated; 10 mM Mes (pH 7.0) and 10 mM Mops (pH 7.0); delta H ion 3.55 and 5.05 kcal/mol.
The target of data set [7] is Histidine phosphocarrier protein HPr (HPr^sc). Put plainly: not stated here (value quoted from ref. [19]; presumably ITC in several buffers). Particulars: pH not stated; cited from earlier work.
The target in another data set is T1, EINosite peptide (Streptomyces coelicolor, C-terminal amidation).
T1 chain: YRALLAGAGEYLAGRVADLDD
Kind of data set: ITC.

Data set [8] deals with T2, EINsc (enzyme I N-terminal domain) N-terminal domain (Streptomyces coelicolor, UniProt Q9KZP1).
T2 chain: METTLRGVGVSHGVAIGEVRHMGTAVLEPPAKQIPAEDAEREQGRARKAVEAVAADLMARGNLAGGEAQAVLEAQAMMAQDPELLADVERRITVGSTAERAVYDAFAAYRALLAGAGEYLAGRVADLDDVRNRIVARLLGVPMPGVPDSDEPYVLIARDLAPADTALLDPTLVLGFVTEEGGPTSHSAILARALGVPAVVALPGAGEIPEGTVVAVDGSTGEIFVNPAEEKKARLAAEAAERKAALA
Kind of data set: ITC. On the technique in general: Isothermal titration calorimetry measures the heat released or taken up as one component is titrated into another.

For data set [9], the target named is T3, EINH186D (enzyme I N-terminal domain) N-terminal domain (Streptomyces coelicolor, UniProt Q9KZP1).
T3 chain: T2 chain with H186D
Kind of data set: ITC.

Data set [10] addresses T4, EINbsite + EINosite equimolar peptide mixture (Streptomyces coelicolor, UniProt Q9KZP1, C-terminal amidation, equimolar mixture of both peptides).
T4 chain 1: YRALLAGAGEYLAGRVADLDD
T4 chain 2: FVTEEGGPTSHSAILARA
Kind of data set: ITC.

For the next data set, the target named is T5, EINbsite peptide (Streptomyces coelicolor).
T5 chain: FVTEEGGPTSHSAILARA-NH2
Put plainly: ITC.

The data set “ITC dilution” concerns the molecule itself. Kind of data set: ITC dilution.

For HPrsc (from UniProt O50515), the Kd was 16 µM in [1] and 10 µM in data set [2].
“Histidine phosphocarrier protein HPr (HPr^bs)”: the n H in [3] was 0.28 protons; in data set [4], -0.31 protons; in data set [5] it was 0.17 protons; in [6], -0.31 protons.
With “N-terminal domain of enzyme I, wild type (EIN^sc)”, the n H in data set [7] was 0.52 protons.

B1: HPrbs (histidine phosphocarrier protein) (protein)
chain: MKTQQFTVIDPLGIHARPASQLVAKATPFASAIEVRTEEKAANLKSILGVMGLALKQGSQFTLYVEGEDEDQAFEALATLLTEMGLAQ
Turning to B1, the Kd was 3 µM with EINosite peptide; 1.9 µM in [8]; 2.9 µM in [9]; 4.8 µM in data set [10]; 3.9 µM with EINbsite peptide; 6.5 µM in the data set “ITC dilution”.
